From paper PMC3970081 (Developmental cell, 2014)

Experiments:
[1] = molecular target: T1, His-AR1 (AnkG aa 2–236, His-tagged) (UniProt O70511 2-236); experiment: SPR
T1 sequence (looked up): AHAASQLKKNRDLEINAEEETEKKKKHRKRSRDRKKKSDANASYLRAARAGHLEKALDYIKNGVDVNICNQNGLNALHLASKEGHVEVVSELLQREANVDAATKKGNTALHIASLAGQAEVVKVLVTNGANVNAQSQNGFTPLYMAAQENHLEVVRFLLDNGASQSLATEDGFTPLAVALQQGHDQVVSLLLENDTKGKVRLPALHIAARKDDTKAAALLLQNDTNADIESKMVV

[2] = molecular target: T2, His-MB (AnkG MB domain, aa 2–791, His-tagged) (UniProt O70511 2-791); experiment: SPR
T2 sequence (looked up): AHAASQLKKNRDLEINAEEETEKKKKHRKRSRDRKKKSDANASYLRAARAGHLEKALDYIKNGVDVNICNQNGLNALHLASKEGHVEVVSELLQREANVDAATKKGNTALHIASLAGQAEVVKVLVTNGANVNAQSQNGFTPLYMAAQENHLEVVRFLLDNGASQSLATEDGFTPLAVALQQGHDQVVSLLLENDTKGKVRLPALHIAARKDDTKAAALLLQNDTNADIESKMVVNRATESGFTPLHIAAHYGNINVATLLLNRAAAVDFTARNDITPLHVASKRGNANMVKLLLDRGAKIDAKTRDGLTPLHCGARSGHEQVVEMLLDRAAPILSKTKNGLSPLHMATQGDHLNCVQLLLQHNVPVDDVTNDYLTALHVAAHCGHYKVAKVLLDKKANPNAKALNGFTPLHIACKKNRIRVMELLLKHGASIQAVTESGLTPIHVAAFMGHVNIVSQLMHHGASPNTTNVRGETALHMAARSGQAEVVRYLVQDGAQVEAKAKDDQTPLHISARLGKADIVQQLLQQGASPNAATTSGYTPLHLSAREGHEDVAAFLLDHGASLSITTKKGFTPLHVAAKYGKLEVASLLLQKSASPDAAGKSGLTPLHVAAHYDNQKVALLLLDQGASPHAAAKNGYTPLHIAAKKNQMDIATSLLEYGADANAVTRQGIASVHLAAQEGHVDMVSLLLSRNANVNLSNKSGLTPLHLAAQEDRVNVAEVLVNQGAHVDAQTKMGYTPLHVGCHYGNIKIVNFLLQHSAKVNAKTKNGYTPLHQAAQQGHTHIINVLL

B1: GST-Tail (GST-tagged KIF5B tail, aa 758–963) (domain or fragment)
chain: not shown
Q: For B1, which Kd [1] is on record?
A: Its Kd is 48 nM.

Q: And the koff [1]?
A: Its koff is 0.0014 s⁻¹.

Q: And the kon [1]?
A: The kon was 32000 M⁻¹ s⁻¹.

Q: And the Kd [2]?
A: The Kd was 2.4 nM.

Q: What about the koff [2] of the same binder?
A: The koff was 0.00059 s⁻¹.

Q: And the kon [2]?
A: Its kon is 290000 M⁻¹ s⁻¹.
